The supplement of paper PMC9170038

System: MS2 coat protein
Assay: apparent KD of MS2 coat protein; designed switch direction (-1 OFF switch, 1 ON switch): -1; higher = weaker reporter binding
Procedure, shortened: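 The buffer was Tris-HCl pH 7.5 with KCl, MgCl2, BSA, DTT, tRNA and Tween-20. In it, SNAP-549-labelled MS2 coat protein was titrated in doubling steps from 0.7 or 1.5 nM to 3 µM over chip-bound RNA switches transcribed by stalled E. coli RNA polymerase on Illumina chips. Apparent KD is the per-design median over clusters of curve fits to normalised fluorescence.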

[1] = Eterna round: R95, input ligand: FMN 200 uM
[2] = Eterna round: R95, input ligand: microRNA oligo, concentration not stated
[3] = Eterna round: R95, input ligand: none
[4] = input ligand: microRNA oligo, concentration not stated

Question: Which results are given for “GAUCGGACGUGGUCAGGUAACAUGAGGAUCACCCAUGUAGGUCUAGGAACAAGCUUUUUGAAAGCUCGUCUUAUAUA [JR_SV3TOV1_Sub057] (puzzle: Sensor v3, turn-off variant 1)”?
Answer: apparent KD of MS2 coat protein [1]: 44.8 nM; apparent KD of MS2 coat protein [2]: 25.5 nM; apparent KD of MS2 coat protein [3]: 49.3 nM

Question: Which “apparent KD of MS2 coat protein” value [1] does the source give for “GAUCGUUUAGAGGAUAUCGUGCUAAACAUUACAUGAGAAGGCUAGACAUGAGGAUCACCCAUGUAUACUCGUGA [Exclusion 6 - 8:a] (puzzle: Exclusion 6)” here?
Answer: The value was 23.7 nM.

Question: What about the “apparent KD of MS2 coat protein” value [2] of the same sequence?
Answer: Its value is 14.7 nM.

Question: And the “apparent KD of MS2 coat protein” value [3]?
Answer: The value was 18.7 nM.

Question: How did the “apparent KD of MS2 coat protein” value (input ligand: FMN 200 uM) turn out when “GAUCUACAUGAGGAUCACCCAUGUAAGGAUAUCUACAUUGAAGCUUCGGCUUCAAUGUAGAGAAGGUACAAUUA [E1/10-B1] (Eterna round: R97, puzzle: Exclusion 1)” was run?
Answer: The value was 40.7 nM.

Question: What about the “apparent KD of MS2 coat protein” value (input ligand: none) of the same sequence?
Answer: The value was 27.9 nM.

Question: For “GAUCUGACAGGAUAUACAUGAGGAUCACCCAUGUGCGAGCUAGCGAAAGCUAGCUCAGGUAGAAGGGUCAGAUC [Ex3 dot plot directed] (Eterna round: R96, puzzle: Exclusion 3)”, which “apparent KD of MS2 coat protein” value (input ligand: FMN 200 uM) is on record?
Answer: The value was 15.1 nM.

Question: And the “apparent KD of MS2 coat protein” value [4]?
Answer: The value was 13.1 nM.

Question: And the “apparent KD of MS2 coat protein” value (input ligand: none)?
Answer: Its value is 15.7 nM.

Question: With “GAUCUGACAGGAUAUACAUGAGGAUCACCCAUGUGCGAGCUAGCGAAAGCUAGCUCAGGUAGAAGGGUCAGAUC [Ex3 dot plot directed] (puzzle: Exclusion 3)” as the sequence, how does the “apparent KD of MS2 coat protein” value [2] read?
Answer: Its value is 11.6 nM.

Question: With “GAUCUGGCAGGAUAUACAUGAGGAUCACCCAUGUGCGAGCUAGCGAAAGCUAGCUCAGGUAGAAGGGUCAGAUC [Ex3 dot plot directed v1] (puzzle: Exclusion 3)” as the sequence, how does the “apparent KD of MS2 coat protein” value [2] read?
Answer: The value was 10.8 nM.

Question: Which “apparent KD of MS2 coat protein” value (input ligand: FMN 200 uM) does the source give for “GAUCUGUGAGGAUAUUUAUCGUAGUGCGUGUAGCCUGCGCCGGAGAAGGCACAUGAGGAUCACCCAUGUUCUAA [Eternabot (L1) Solution 45] (Eterna round: R97, puzzle: Exclusion 4)” here?
Answer: Its value is 57.2 nM.

Question: What about the “apparent KD of MS2 coat protein” value (input ligand: none) of the same sequence?
Answer: Its value is 51.8 nM.

Question: “GAUGAGGUAGGAUAUACGAGAAUAUAGGGUAGAUAUAUAACACAUGAGGAUCACCCAUGUAGAAGGACCAGUAG [Mat - Exclusion 2 - Mod of my Tesla design - D70] (puzzle: Exclusion 2)” was tested. Which “apparent KD of MS2 coat protein” value [2] did it give?
Answer: The value was 33.6 nM.

Question: Which results are given for “GAUGCUCCGGUCAGGAUAUCAGGUGCAAGCACCGGUGAGAAGGGACAUGAGGAUCACCCAUGUAAAAUAAGACC [Aenxeza] (Eterna round: R97, puzzle: Brourd's mod of Exclusion 4)”?
Answer: apparent KD of MS2 coat protein (input ligand: FMN 200 uM): 40.7 nM; apparent KD of MS2 coat protein (input ligand: none): 24 nM

Question: Which “apparent KD of MS2 coat protein” value [1] does the source give for “GAUGGACAUGAGGAUCACCCAUGUAAGGAUAUACGGUUGGUAGAGAGAGAGAGAAAUGGUAGAAGGUACGGAAA [JR_Exclu1_Sub051] (puzzle: Exclusion 1)” here?
Answer: The value was 36.5 nM.

Question: What about the “apparent KD of MS2 coat protein” value [2] of the same sequence?
Answer: The value was 46.6 nM.

Question: And the “apparent KD of MS2 coat protein” value [3]?
Answer: The value was 50.3 nM.

Question: “GAUGUGGGUUUCCGGAGUAACAUGAGGAUCACCCAUGUAGAAGUUGGAGGGAUAAUGCUUUUUGCUCGUUACACGUG [JR_SV3TOV1_Sub054] (puzzle: Sensor v3, turn-off variant 1)” was tested. Which “apparent KD of MS2 coat protein” value [1] did it give?
Answer: The value was 404 nM.

Question: What about the “apparent KD of MS2 coat protein” value [2] of the same sequence?
Answer: Its value is 323 nM.

Question: And the “apparent KD of MS2 coat protein” value [3]?
Answer: The value was 538 nM.

Question: What does the source list for “GAUGUGGGUUUUCAGAGUAACAUGAGGAUCACCCAUGUAGAAGUUGAAGGUAUCAAGCGAAUGGCUCGUCAAAUGUG [JR_SV3TOV1_Sub049] (puzzle: Sensor v3, turn-off variant 1)”?
Answer: apparent KD of MS2 coat protein [1]: 229 nM; apparent KD of MS2 coat protein [2]: 182 nM; apparent KD of MS2 coat protein [3]: 287 nM

Question: For “GAUGUGUUAGGAUAUCGAAGUAUCUGUGCUGUGGCGAAUCACGAGAAGGAACAUGAGGAUCACCCAUGUGGUUG [Eternabot (L2) Solution 34] (Eterna round: R97, puzzle: Exclusion 4)”, which “apparent KD of MS2 coat protein” value (input ligand: FMN 200 uM) is on record?
Answer: The value was 68.9 nM.

Question: And the “apparent KD of MS2 coat protein” value (input ligand: none)?
Answer: Its value is 63.9 nM.

Question: For “GAUUAACAUGAGGAUCACCCAUGUGAGGAUAUGGACUUGCCCACUUACCCUUUAGAGUCUAGAAGGCGCAUUUC [1986#31] (Eterna round: R97, puzzle: Exclusion 1)”, which “apparent KD of MS2 coat protein” value (input ligand: FMN 200 uM) is on record?
Answer: Its value is 23.1 nM.

Question: And the “apparent KD of MS2 coat protein” value (input ligand: none)?
Answer: The value was 20.9 nM.

Question: “GAUUACAACGAAGACAAGCACAUGAGGAUCACCCAUGUGUAAAAUCGAGUGGGCCCACUCGUACCUCAACACCGUCU [JR_Sensorv2_tov_Sub304] (Eterna round: R96, puzzle: Sensor v2, turn-off variant)” was tested. Which “apparent KD of MS2 coat protein” value (input ligand: FMN 200 uM) did it give?
Answer: The value was 18.9 nM.

Question: What about the “apparent KD of MS2 coat protein” value [4] of the same sequence?
Answer: The value was 15.8 nM.

Question: What about the “apparent KD of MS2 coat protein” value (input ligand: none) of the same sequence?
Answer: The value was 19.8 nM.

Question: Which “apparent KD of MS2 coat protein” value [1] does the source give for “GAUUAUGCGAGCUUUAGGGACAUGAGGAUCACCCAUGUUCGUCUUAUUAAUCUAGGUACACUAACAUACCUAAAUCU [JMF 10] (puzzle: Sensor v3, turn-off variant 1)” here?
Answer: The value was 23.9 nM.

Question: And the “apparent KD of MS2 coat protein” value [2]?
Answer: Its value is 37.6 nM.

Question: What about the “apparent KD of MS2 coat protein” value [3] of the same sequence?
Answer: The value was 21.4 nM.

Question: What does the source list for “GAUUAUGCGAGCUUUAGGGACAUGAGGAUCACCCAUGUUCGUCUUAUUAAUCUGGGUACGCUAACAUACCUAAAUCU [JMF 41] (puzzle: Sensor v3, turn-off variant 1)”?
Answer: apparent KD of MS2 coat protein [1]: 28.5 nM; apparent KD of MS2 coat protein [2]: 40.7 nM; apparent KD of MS2 coat protein [3]: 26.7 nM

Question: Which “apparent KD of MS2 coat protein” value [1] does the source give for “GAUUAUGCGAGCUUUAGGGACAUGAGGAUCACCCAUGUUCGUCUUAUUAGUCUAGAUACACUGACAUACCUAAAUCU [JMF 57] (puzzle: Sensor v3, turn-off variant 1)” here?
Answer: The value was 14.5 nM.

Question: And the “apparent KD of MS2 coat protein” value [2]?
Answer: The value was 18.2 nM.

Question: And the “apparent KD of MS2 coat protein” value [3]?
Answer: The value was 13.8 nM.

Question: “GAUUAUGCGAGCUUUAGGGACAUGAGGAUCACCCAUGUUCGUCUUAUUAGUCUAGGUACGCUGACAUACCUAAAUCU [JMF 100] (puzzle: Sensor v3, turn-off variant 1)” was tested. Which “apparent KD of MS2 coat protein” value [1] did it give?
Answer: Its value is 21.8 nM.

Question: What about the “apparent KD of MS2 coat protein” value [2] of the same sequence?
Answer: The value was 32.9 nM.

Question: And the “apparent KD of MS2 coat protein” value [3]?
Answer: Its value is 21.6 nM.

Question: What does the source list for “GAUUAUGCGAGCUUUAGGGACAUGAGGAUCACCCAUGUUCGUCUUAUUAGUCUGGAUACACUGACAUACCUAAAUCU [JMF 59] (puzzle: Sensor v3, turn-off variant 1)”?
Answer: apparent KD of MS2 coat protein [1]: 14.8 nM; apparent KD of MS2 coat protein [2]: 20.9 nM; apparent KD of MS2 coat protein [3]: 16.4 nM

Question: Which “apparent KD of MS2 coat protein” value [1] does the source give for “GAUUAUGCGAGCUUUAGGGACAUGAGGAUCACCCAUGUUCGUCUUAUUAGUCUGGAUGCACUGACAUACCUAAAUCU [JMF 81] (puzzle: Sensor v3, turn-off variant 1)” here?
Answer: The value was 18.4 nM.

Question: What about the “apparent KD of MS2 coat protein” value [2] of the same sequence?
Answer: The value was 25.2 nM.

Question: And the “apparent KD of MS2 coat protein” value [3]?
Answer: The value was 19.1 nM.

Question: Which results are given for “GAUUAUGCGAGCUUUAGGGACAUGAGGAUCACCCAUGUUCGUCUUAUUAGUCUGGGUGCACUAACAUACCUAAAUCU [JMF 37] (puzzle: Sensor v3, turn-off variant 1)”?
Answer: apparent KD of MS2 coat protein [1]: 135 nM; apparent KD of MS2 coat protein [2]: 81.4 nM; apparent KD of MS2 coat protein [3]: 153 nM

Question: What does the source list for “GAUUAUGCGAGCUUUAGGGACAUGAGGAUCACCCAUGUUCGUCUUAUUGAUCUAGGUGCGCUAACAUACCUAAAUCU [JMF 49] (puzzle: Sensor v3, turn-off variant 1)”?
Answer: apparent KD of MS2 coat protein [1]: 26.2 nM; apparent KD of MS2 coat protein [2]: 34.7 nM; apparent KD of MS2 coat protein [3]: 30 nM
